Source: article PMC5267525, “Sec3 promotes the initial binary t-SNARE complex assembly and membrane fusion” (Nature Communications, 2017)

B3: His6-Sso2 (cytosolic domain, a.a. 1–270) (domain or fragment, yeast, UniProt P39926 1-270, looked up)
chain: MSNANPYENNNPYAENYEMQEDLNNAPTGHSDGSDDFVAFMNKINSINANLSRYENIINQIDAQHKDLLTQVSEEQEMELRRSLDDYISQATDLQYQLKADIKDAQRDGLHDSNKQAQAENCRQKFLKLIQDYRIIDSNYKEESKEQAKRQYTIIQPEATDEEVEAAINDVNGQQIFSQALLNANRRGEAKTALAEVQARHQELLKLEKTMAELTQLFNDMEELVIEQQENVDVIDKNVEDAQQDVEQGVGHTNKAVKSARKARKNKIRC
notes: Sso2, yeast t-SNARE, cytosolic domain a.a; 1-270; also called pG707
B5: Sec3 N-terminal domain (a.a. 75–320) (domain or fragment, yeast, UniProt P33332 75-320, looked up)
chain: SNFLAEQYERDRKAIINCCFSRPDHKTGEPPNNYITHVRIIEDSKFPSSRPPPDSKLENKKKRLLILSAKPNNAKLIQIHKARENSDGSFQIGRTWQLTELVRVEKDLEISEGFILTMSKKYYWETNSAKERTVFIKSLITLYIQTFEGHVPELVNWDLSLFYLDERSYQRAVITNRPGSVSPIKSPTSNFTTNTTQSVGSVPFSAPTERTRRSETESVNPVSTPASVEYHAGMKSLNKAPYSSNS
notes: Sec3, yeast exocyst subunit, N-terminal domain a.a; 75-320 (contains the PH domain); Cloned in the custom vector MalpET; tag cut off by tobacco etch virus protease; also called Sec3(a.a. 75–320); source: E. coli BL21(DE3), purified (Ni-HiTrap, HiTrap-Q HP, Superdex-200); not shown: MBP-His10, N-terminal, cleaved

Legend:
Conditions in all cases: both partners purified
[1] = molecular target: B5; assay: crystal structure; crystal form 1, space group C222(1); 0.1 M HEPES pH 7.0, 0.2 M NaCl, 25% PEG 3350; 2.20 Å
[2] = molecular target: T1, GST-Sec3N (Sec3 N-terminus, a.a. 1–320) (yeast, UniProt P33332 1-320); assay: co-sedimentation; liposomes containing Sso2 incubated with Sec9C in the presence or absence of Sec3N at 25 °C for 30 min; liposomes collected by sedimentation; SDS-PAGE, Coomassie blue; Sso2-free liposomes as control
T1 construct: Sec3, yeast exocyst subunit, N-terminus a.a; 1-320; also called pG1860; source: E. coli BL21(DE3), purified (Glutathione Sepharose 4B)
T1 sequence (looked up): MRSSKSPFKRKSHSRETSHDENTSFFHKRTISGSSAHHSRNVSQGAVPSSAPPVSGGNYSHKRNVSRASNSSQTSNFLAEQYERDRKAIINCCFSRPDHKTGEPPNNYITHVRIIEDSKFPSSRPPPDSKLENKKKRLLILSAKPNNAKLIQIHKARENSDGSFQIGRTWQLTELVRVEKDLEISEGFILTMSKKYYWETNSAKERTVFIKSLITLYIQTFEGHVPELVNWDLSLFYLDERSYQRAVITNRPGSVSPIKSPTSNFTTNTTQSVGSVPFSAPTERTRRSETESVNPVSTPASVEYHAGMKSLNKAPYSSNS

[3] = molecular target: T1, GST-Sec3N (Sec3 N-terminus, a.a. 1–320); assay: pull-down; GST-Sec3N on glutathione Sepharose with His6-Sso2 or His6-Sec9C, or with both in three orders of addition (simultaneous; Sec3N and Sso2 pre-incubated 30 min; Sso2 and Sec9C pre-incubated 2 h); 5 μg His6-Sec9C; Coomassie blue
[4] = molecular target: T2, His6-Sso2-mutHL2 (a.a. 1–270, 170DVNGQ174 to 170GSSGG174) (yeast, UniProt P39926 1-270, 170DVNGQ174 to 170GSSGG174); assay: pull-down; time course: His6-Sso2 (2 μM) alone added to GST-Sec9C (20 μg) on glutathione Sepharose 4B, 100 μl, 25 °C; bound Sso2 quantified from Coomassie gels; apparent rate constant from a second-order fit
T2 construct: Sso2, yeast t-SNARE, cytosolic domain a.a; 1-270, mutated directly from pG707; also called pG1971
T2 sequence (looked up): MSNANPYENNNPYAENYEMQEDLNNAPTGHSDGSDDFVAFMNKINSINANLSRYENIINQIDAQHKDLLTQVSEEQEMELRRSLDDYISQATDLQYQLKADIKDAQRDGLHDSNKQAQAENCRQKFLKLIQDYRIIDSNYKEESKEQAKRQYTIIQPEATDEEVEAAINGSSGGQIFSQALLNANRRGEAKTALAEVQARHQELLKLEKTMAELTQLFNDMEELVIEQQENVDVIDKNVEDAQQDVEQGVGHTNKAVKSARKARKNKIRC

[5] = molecular target: B3; assay: as above
[6] = molecular target: B3; assay: pull-down; time course as a6, but His6-Sso2 (2 μM) pre-incubated with His6-Sec3N (2 μM) for 30 min at 25 °C before GST-Sec9C (20 μg) on glutathione Sepharose 4B; apparent rate constant from a second-order fit
[7] = molecular target: T3, Sso2 (a.a. 1–270), as used in size-exclusion chromatography (yeast, UniProt P39926 1-270); assay: SEC; Superdex-200 16/60 column; proteins applied individually or in mixture, Sso2 with excess Sec3N
T3 construct: Sso2, yeast t-SNARE, a.a; The text says that this complex was later used for crystallization, for which the methods give Sso2 a.a; 36-227 with the His6 tag cleaved; the legend's limits are kept
T3 sequence (looked up): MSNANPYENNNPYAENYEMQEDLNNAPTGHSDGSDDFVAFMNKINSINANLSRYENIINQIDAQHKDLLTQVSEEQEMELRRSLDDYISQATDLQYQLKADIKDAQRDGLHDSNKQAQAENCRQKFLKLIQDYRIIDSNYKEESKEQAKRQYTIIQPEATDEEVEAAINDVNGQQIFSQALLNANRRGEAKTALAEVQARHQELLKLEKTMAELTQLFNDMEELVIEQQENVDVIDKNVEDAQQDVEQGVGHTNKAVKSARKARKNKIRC

B1: Sso2 Habc and SNARE motif (a.a. 36–227) (domain or fragment, yeast, UniProt P39926 36-227, looked up)
chain: DFVAFMNKINSINANLSRYENIINQIDAQHKDLLTQVSEEQEMELRRSLDDYISQATDLQYQLKADIKDAQRDGLHDSNKQAQAENCRQKFLKLIQDYRIIDSNYKEESKEQAKRQYTIIQPEATDEEVEAAINDVNGQQIFSQALLNANRRGEAKTALAEVQARHQELLKLEKTMAELTQLFNDMEELVIE
notes: Sso2, yeast t-SNARE, Habc and the SNARE motif, a.a; 36-227; Cloned in pET15b; tag removed by thrombin; also called Sso2 (a.a. 36–227); source: E. coli BL21(DE3), purified (Ni-HiTrap, HiTrap-Q HP, Superdex-200); not shown: His6, N-terminal, cleaved
- binding result [1]: binds

B2: Sso2 reconstituted in liposomes (natural protein, yeast, UniProt P39926 1-295, looked up)
chain: MSNANPYENNNPYAENYEMQEDLNNAPTGHSDGSDDFVAFMNKINSINANLSRYENIINQIDAQHKDLLTQVSEEQEMELRRSLDDYISQATDLQYQLKADIKDAQRDGLHDSNKQAQAENCRQKFLKLIQDYRIIDSNYKEESKEQAKRQYTIIQPEATDEEVEAAINDVNGQQIFSQALLNANRRGEAKTALAEVQARHQELLKLEKTMAELTQLFNDMEELVIEQQENVDVIDKNVEDAQQDVEQGVGHTNKAVKSARKARKNKIRCLIICFIIFAIVVVVVVVPSVVETRK
notes: Sso2, yeast t-SNARE, called the full-length Sso2 in the fusion assays; also called Sso2 liposomes; t-SNARE liposomes reconstituted with Sso2; source: reconstituted in POPC/DOPS liposomes
- binding result [2]: binds

Binder: B3
- binding result [3]: binds

B4: GST-tagged Sec9 C-terminal SNARE domain (a.a. 414–651) (domain or fragment, yeast, UniProt P40357 414-651, looked up)
chain: EEARQQQEEDEAVDEIKQEIKFTKQSSVASTRNTLKMAQDAERAGMNTLGMLGHQSEQLNNVEGNLDLMKVQNKVADEKVAELKKLNRSILAVHVSNPFNSKRRRREREEQLKNRKIEEKLMREQTSQQLSQSTQRIEGAMNANNNISEVRERYQRKNVLEKAKRYQFENDEEDDEMELEIDRNLDQIQQVSNRLKKMALTTGKELDSQQKRLNNIEESTDDLDINLHMNTNRLAGIR
notes: Sec9, yeast t-SNARE (SNAP-23 homologue), C-terminal SNARE domain a.a; 414-651; also called GST-Sec9C; pG1067; source: E. coli BL21(DE3), purified (Glutathione Sepharose 4B)
- binding result [4]: binds
- kon [5]: 15.2 ± 0.6 M⁻¹ s⁻¹
- kon [6]: 200 ± 90 M⁻¹ s⁻¹

Binder: B5
- binding result [7]: binds
